According to patent US20220339270A1 (published 2022):

Columns and labels:
[1] = biological target: T1, recombinant tau mutant protein tau441-T212A+S214A (phospho-Tau variant) (human, UniProt P10636 1-758, phosphorylated (phospho-Tau variant; kinase DYRK1A by the context)); assay: PT3 ELISA with phospho-Tau variants
T1 construct: not shown: his tag (detected with anti-his antibody)

[2] = biological target: T2, recombinant tau mutant protein tau441-T217A+T231A (phospho-Tau variant) (human, UniProt P10636 1-758, phosphorylated (phospho-Tau variant; kinase DYRK1A by the context)); assay: PT3 ELISA with phospho-Tau variants
T2 construct: not shown: his tag (detected with anti-his antibody)

[3] = biological target: T3, recombinant tau mutant protein tau441-T212A+T231A (phospho-Tau variant) (human, UniProt P10636 1-758, phosphorylated (phospho-Tau variant; kinase DYRK1A by the context)); assay: PT3 ELISA with phospho-Tau variants
T3 construct: not shown: his tag (detected with anti-his antibody)
T3 sequence (P10636 other isoform, or with tags, fused parts or gaps T212A T231A T212A T231A): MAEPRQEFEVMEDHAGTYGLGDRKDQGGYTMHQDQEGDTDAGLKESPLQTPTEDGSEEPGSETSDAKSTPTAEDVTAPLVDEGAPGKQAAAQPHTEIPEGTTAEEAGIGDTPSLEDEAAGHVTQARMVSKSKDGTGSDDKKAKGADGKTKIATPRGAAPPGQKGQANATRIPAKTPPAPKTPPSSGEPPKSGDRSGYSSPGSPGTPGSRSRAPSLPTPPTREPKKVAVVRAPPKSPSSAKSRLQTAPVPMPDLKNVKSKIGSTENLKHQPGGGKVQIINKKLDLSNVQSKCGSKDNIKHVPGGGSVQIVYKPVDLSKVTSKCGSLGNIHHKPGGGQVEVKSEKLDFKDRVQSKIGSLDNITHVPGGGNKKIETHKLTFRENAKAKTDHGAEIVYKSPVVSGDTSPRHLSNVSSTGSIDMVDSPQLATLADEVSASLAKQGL

[4] = biological target: T4, recombinant tau mutant protein tau441-T212A+T217A+T231A (phospho-Tau variant) (human, UniProt P10636 1-758, phosphorylated (phospho-Tau variant; kinase DYRK1A by the context)); assay: PT3 ELISA with phospho-Tau variants
T4 construct: not shown: his tag (detected with anti-his antibody)

[5] = biological target: T5, recombinant tau mutant protein tau441-T212A+T217A (phospho-Tau variant) (human, UniProt P10636 1-758, phosphorylated (phospho-Tau variant; kinase DYRK1A by the context)); assay: PT3 ELISA with phospho-Tau variants
T5 construct: not shown: his tag (detected with anti-his antibody)
T5 sequence (P10636 other isoform, or with tags, fused parts or gaps T212A T217A T212A T217A): as the sequence (P10636 other isoform, or with tags, fused parts or gaps T212A T231A T212A T231A) above, with T217A, A231T counted along it

[6] = biological target: T6, extracellular tau in the form of paired helical filaments (ePHF) (UniProt P10636-8 1-441, limits assumed); assay: method not stated
T6 construct: Immobilised on 96-well plates for the ePHF tau ELISA; also called ePHF tau; PHF tau

Phospho_Tau441_T202A = biological target: T7, Phospho_Tau441_T202A (human, UniProt P10636 2-758, phosphorylated in vitro by DYRK1A; sites not determined); assay: ELISA, PT3 immobilized, tau protein applied at 333 ng/mL
T7 construct: the list of mutated sites gives S202; also called S202 mutant; not shown: his tag added

Phospho_Tau441_T181A = biological target: T8, Phospho_Tau441_T181A (human, UniProt P10636 2-758, phosphorylated in vitro by DYRK1A; sites not determined); assay: as above
T8 construct: not shown: his tag added
T8 sequence (P10636 other isoform, or with tags, fused parts or gaps T181A T181A): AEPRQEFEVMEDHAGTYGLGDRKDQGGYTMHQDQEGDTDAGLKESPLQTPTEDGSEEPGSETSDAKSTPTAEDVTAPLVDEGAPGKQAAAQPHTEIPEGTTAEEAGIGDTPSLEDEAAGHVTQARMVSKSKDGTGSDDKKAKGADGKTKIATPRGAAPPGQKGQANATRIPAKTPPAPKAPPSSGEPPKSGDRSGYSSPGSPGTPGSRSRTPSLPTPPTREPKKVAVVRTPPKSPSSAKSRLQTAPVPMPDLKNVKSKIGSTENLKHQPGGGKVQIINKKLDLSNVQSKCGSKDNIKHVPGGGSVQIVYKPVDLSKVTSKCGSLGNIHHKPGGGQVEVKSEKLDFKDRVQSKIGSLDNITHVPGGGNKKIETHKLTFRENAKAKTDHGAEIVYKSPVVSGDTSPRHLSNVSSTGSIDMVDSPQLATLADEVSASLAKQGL

Phospho_Tau441_S396A = biological target: T9, Phospho_Tau441_S396A (human, UniProt P10636 2-758, phosphorylated in vitro by DYRK1A; sites not determined); assay: as above
T9 construct: not shown: his tag added
T9 sequence (P10636 other isoform, or with tags, fused parts or gaps S396A S396A): as the sequence (P10636 other isoform, or with tags, fused parts or gaps T181A T181A) above, with A180T, S395A counted along it

Tau441_T212A = biological target: T10, Tau441_T212A (human, UniProt P10636 2-758); assay: as above
T10 construct: not phosphorylated; not shown: his tag added

Tau441_T205A = biological target: T11, Tau441_T205A (human, UniProt P10636 2-758); assay: as above
T11 construct: not phosphorylated; not shown: his tag added

Tau441_T181A = biological target: T12, Tau441_T181A (human, UniProt P10636 2-758); assay: as above
T12 construct: not phosphorylated; not shown: his tag added
T12 sequence (P10636 other isoform, or with tags, fused parts or gaps T181A T181A): as the sequence (P10636 other isoform, or with tags, fused parts or gaps T181A T181A) above

Phospho_Tau441_T212A = biological target: T13, Phospho_Tau441_T212A (human, UniProt P10636 2-758, phosphorylated in vitro by DYRK1A; sites not determined); assay: as above
T13 construct: not shown: his tag added

Tau441_S396A = biological target: T14, Tau441_S396A (human, UniProt P10636 2-758); assay: as above
T14 construct: not phosphorylated; not shown: his tag added
T14 sequence (P10636 other isoform, or with tags, fused parts or gaps S396A S396A): as the sequence (P10636 other isoform, or with tags, fused parts or gaps T181A T181A) above, with A180T, S395A counted along it

Phospho_Tau441_T231A = biological target: T15, Phospho_Tau441_T231A (human, UniProt P10636 2-758, phosphorylated in vitro by DYRK1A; sites not determined); assay: as above
T15 construct: not shown: his tag added

Tau441_T217A = biological target: T16, Tau441_T217A (human, UniProt P10636 2-758); assay: as above
T16 construct: not phosphorylated; not shown: his tag added
T16 sequence (P10636 other isoform, or with tags, fused parts or gaps T217A T217A): as the sequence (P10636 other isoform, or with tags, fused parts or gaps T181A T181A) above, with A180T, T216A counted along it

Phospho_Tau441_T205A = biological target: T17, Phospho_Tau441_T205A (human, UniProt P10636 2-758, phosphorylated in vitro by DYRK1A; sites not determined); assay: as above
T17 construct: not shown: his tag added

Phospho_Tau441_T217A = biological target: T18, Phospho_Tau441_T217A (human, UniProt P10636 2-758, phosphorylated in vitro by DYRK1A; sites not determined); assay: as above
T18 construct: not shown: his tag added
T18 sequence (P10636 other isoform, or with tags, fused parts or gaps T217A T217A): as the sequence (P10636 other isoform, or with tags, fused parts or gaps T181A T181A) above, with A180T, T216A counted along it

Tau441_T202A = biological target: T19, Tau441_T202A (human, UniProt P10636 2-758); assay: as above
T19 construct: not phosphorylated; printed T202A, the text gives S202; also called S202 mutant; not shown: his tag added

Phospho_Tau441_S199A = biological target: T20, Phospho_Tau441_S199A (human, UniProt P10636 2-758, phosphorylated in vitro by DYRK1A; sites not determined); assay: as above
T20 construct: not shown: his tag added

Tau441_T231A = biological target: T21, Tau441_T231A (human, UniProt P10636 2-758); assay: as above
T21 construct: not phosphorylated; not shown: his tag added

Tau441_S400A = biological target: T22, Tau441_S400A (human, UniProt P10636 2-758); assay: as above
T22 construct: not phosphorylated; not shown: his tag added

Tau441_S404A = biological target: T23, Tau441_S404A (human, UniProt P10636 2-758); assay: as above
T23 construct: not phosphorylated; not shown: his tag added

Phospho_Tau441_S400A = biological target: T24, Phospho_Tau441_S400A (human, UniProt P10636 2-758, phosphorylated in vitro by DYRK1A; sites not determined); assay: as above
T24 construct: not shown: his tag added

Phospho_Tau441_S422A = biological target: T25, Phospho_Tau441_S422A (human, UniProt P10636 2-758, phosphorylated in vitro by DYRK1A; sites not determined); assay: as above
T25 construct: not shown: his tag added

Tau441_S199A = biological target: T26, Tau441_S199A (human, UniProt P10636 2-758); assay: as above
T26 construct: not phosphorylated; not shown: his tag added

Phospho_Tau441_S404A = biological target: T27, Phospho_Tau441_S404A (human, UniProt P10636 2-758, phosphorylated in vitro by DYRK1A; sites not determined); assay: as above
T27 construct: not shown: his tag added

[7] = biological target: T28, Tau441-T217A + T231A, phosphorylated in vitro by DYRK1A (human, UniProt P10636 1-758, phosphorylated in vitro by DYRK1A; occupied sites not determined individually); assay: PT3 ELISA, 210 ng/mL DYRK1A-phosphorylated tau variant
T28 construct: His-tagged

[8] = biological target: T29, Tau441-T212A + S214A, phosphorylated in vitro by DYRK1A (human, UniProt P10636 1-758, phosphorylated in vitro by DYRK1A; occupied sites not determined individually); assay: as above
T29 construct: His-tagged
T29 sequence (P10636 other isoform, or with tags, fused parts or gaps T212A S214A T212A S214A limits assumed): as the sequence (P10636 other isoform, or with tags, fused parts or gaps T212A T231A T212A T231A) above, with S214A, A231T counted along it

[9] = biological target: T30, Tau441-T212A + T231A, phosphorylated in vitro by DYRK1A (human, UniProt P10636 1-758, phosphorylated in vitro by DYRK1A; occupied sites not determined individually); assay: as above
T30 construct: His-tagged
T30 sequence (P10636 other isoform, or with tags, fused parts or gaps T212A T231A T212A T231A limits assumed): as the sequence (P10636 other isoform, or with tags, fused parts or gaps T212A T231A T212A T231A) above

[10] = biological target: T31, Wild-type Tau441, phosphorylated in vitro by DYRK1A (human, UniProt P10636 1-758); assay: as above
T31 construct: Recombinant protein detected with an anti-his antibody; also called phospho-tau

[11] = biological target: T32, Tau441-T212A + T217A + T231A, phosphorylated in vitro by DYRK1A (human, UniProt P10636 1-758, phosphorylated in vitro by DYRK1A; occupied sites not determined individually); assay: as above
T32 construct: His-tagged

[12] = biological target: T33, Tau441-T212A + T217A, phosphorylated in vitro by DYRK1A (human, UniProt P10636 1-758, phosphorylated in vitro by DYRK1A; occupied sites not determined individually); assay: as above
T33 construct: His-tagged
T33 sequence (P10636 other isoform, or with tags, fused parts or gaps T212A T217A T212A T217A limits assumed): as the sequence (P10636 other isoform, or with tags, fused parts or gaps T212A T231A T212A T231A) above, with T217A, A231T counted along it

B1: anti-tau antibody PT3 (antibody, V domains shown)
VH: EVKLVESGGDLVKPGGSLKLSCAASGFTFSSYAMSWVRQNPEKRLEWVASISKGGNTYYPNSVKGRFTISRDNARNILYLQMSSLRSEDTALYYCARGWGDYGWFAYWGQVTLVTVSA
VL: DIKMTQSPSSMYASLGERVTITCKASQDINRYLNWFQQKPGKSPKTLIYRANRLLDGVPSRFSGSGSGQDYSLTISSLDYEDMGIYYCLQYDEFPLTFGDGTKLELK
notes: also called purified PT3 antibody
binding result [1]: no binding (tested: 210 ng/mL)
binding result [2]: no binding (tested: 210 ng/mL)
binding result [3]: no binding (tested: 210 ng/mL)
binding result [4]: no binding (tested: 210 ng/mL)
binding result [5]: no binding (tested: 210 ng/mL)
Kd [6]: 0.018 nM

B2: anti-tau antibody PT3 (antibody, V domains shown)
VH: B1 VH
VL: B1 VL
OD450-570 (Phospho_Tau441_T202A): 0.6
OD450-570 (Phospho_Tau441_T181A): 0.4
OD450-570 (Phospho_Tau441_S396A): 0.5
OD450-570 (Tau441_T212A): 0
OD450-570 (Tau441_T205A): 0
OD450-570 (Tau441_T181A): 0
OD450-570 (Phospho_Tau441_T212A): 0
OD450-570 (Tau441_S396A): 0
OD450-570 (Phospho_Tau441_T231A): 0.3
OD450-570 (Tau441_T217A): 0
OD450-570 (Phospho_Tau441_T205A): 0.4
OD450-570 (Phospho_Tau441_T217A): 0
OD450-570 (Tau441_T202A): 0
OD450-570 (Phospho_Tau441_S199A): 0.7
OD450-570 (Tau441_T231A): 0
OD450-570 (Tau441_S400A): 0
OD450-570 (Tau441_S404A): 0
OD450-570 (Phospho_Tau441_S400A): 0.3
OD450-570 (Phospho_Tau441_S422A): 0.3
OD450-570 (Tau441_S199A): 0
OD450-570 (Phospho_Tau441_S404A): 0.6

B3: anti-tau antibody PT3 (antibody, V domains shown)
VH: B1 VH
VL: B1 VL
OD450-570 [7]: 0.1 OD
OD450-570 [8]: 0.1 OD
OD450-570 [9]: 0.1 OD
OD450-570 [10]: 1.7 OD
OD450-570 [11]: 0 OD
OD450-570 [12]: 0 OD
